# Reference: the RNAGym collection of RNA variant scans (doi:10.7554/elife.80360)
# B1: Twister Ribozyme (parent)
# chain: AACACUGCCAAUGCCGGUCCCAAGCCCGGAUAAAAGUGGAGGGGGCGG
# Variants of: B1
# Test: self-cleavage, relative activity (ratio to wild type); higher = more cleavage; co-transcriptional
row,Variant,self-cleavage
1,G45U,0.902
2,G45C,0.645
3,G45A,0.939
4,G45A C46A,0.714
5,G45A C46G,0.856
6,G45A C46U,0.848
7,G47C G48A,0.666
8,G44C G47U,0.244
9,G47C,0.706
10,G47A,0.952
11,G47U,0.965
12,G45U G48C,1.48
13,G45U G48U,0.757
14,G45U G48A,0.757
15,G44A G47C,0.828
16,G44A G47U,0.922
17,G47U G48A,0.819
18,G47U G48U,1.57
19,G45U G47C,0.435
20,G45U G47U,0.386
21,G48A,0.986

row,Variant,self-cleavage
1,G48U,1.06
2,G48C,1.15
3,G44U G45A,0.825
4,G44U G45U,0.922
5,C46G G47U,0.728
6,C46G G47A,0.818
7,G44C G48C,0.225
8,G44C G48U,0.225
9,G45C C46G,1.61
10,G45C C46A,0.564
11,G45A G48A,0.785
12,G45A G48U,0.917
13,G45C G47A,0.305
14,G44A,0.959
15,G44U,0.974
16,G44C,0.971
17,C46G,0.951
18,C46A,0.927
19,C46U,0.958
20,G44A G45A,0.906
21,G44A G45C,0.535

row,Variant,self-cleavage
1,G45U C46A,0.595
2,G44U G48U,0.545
3,G44U G48C,0.427
4,C46A G48A,0.837
5,C46A G48U,0.889
6,G44A G48A,0.927
7,G44C G45A,0.762
8,G44U C46A,0.476
9,G44U C46G,0.728
10,G44U C46U,1.02
11,C46U G47C,1.6
12,C46U G47A,0.874
13,G45A G47C,0.539
14,G45A G47U,0.701
15,G44U G47U,0.783
16,G47A G48C,0.942
17,G47A G48A,1.31
18,C46U G48A,0.885
19,C46U G48U,1.01
20,G44C C46G,0.254
21,G44C C46A,0.28
